T1: Recombinant human STAT1α (OriGene Technologies, Inc.), P42224
T1 chain: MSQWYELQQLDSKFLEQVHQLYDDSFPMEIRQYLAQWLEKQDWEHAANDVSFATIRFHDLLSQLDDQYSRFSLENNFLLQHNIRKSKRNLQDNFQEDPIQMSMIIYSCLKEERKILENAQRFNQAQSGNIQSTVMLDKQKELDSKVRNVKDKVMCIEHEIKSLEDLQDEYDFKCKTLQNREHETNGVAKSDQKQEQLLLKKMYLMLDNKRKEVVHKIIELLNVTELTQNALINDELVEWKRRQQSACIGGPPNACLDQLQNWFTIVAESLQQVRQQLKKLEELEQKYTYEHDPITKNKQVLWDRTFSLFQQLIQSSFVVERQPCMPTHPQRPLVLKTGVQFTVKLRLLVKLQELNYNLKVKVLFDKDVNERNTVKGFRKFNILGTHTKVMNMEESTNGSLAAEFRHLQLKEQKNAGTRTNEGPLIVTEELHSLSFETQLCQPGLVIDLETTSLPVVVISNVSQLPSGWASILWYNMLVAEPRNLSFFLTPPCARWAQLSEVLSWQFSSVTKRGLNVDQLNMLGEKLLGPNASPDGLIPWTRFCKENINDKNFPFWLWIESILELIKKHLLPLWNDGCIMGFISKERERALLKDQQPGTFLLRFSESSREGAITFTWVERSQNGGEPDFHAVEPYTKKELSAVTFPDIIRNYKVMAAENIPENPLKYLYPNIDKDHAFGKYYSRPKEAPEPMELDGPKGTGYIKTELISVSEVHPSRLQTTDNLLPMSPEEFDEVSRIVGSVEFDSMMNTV

B1: Recombinant human PARP14 (BPS Bioscience Inc.) (protein)
chain: KEYQELNELQKKLNINISLDHKRPLIKVLGISRDVMQARDEIEAMIKRVRLAKEQESRADCISEFIEWQYNDNNTSHCFNKMTNLKLEDARREKKKTVDVKINHRHYTVNLNTYTATDTKGHSLSVQRLTKSKVDIPAHWSDMKQQNFCVVELLPSDPEYNTVASKFNQTCSHFRIEKIERIQNPDLWNSYQAKKKTMDAKNGQTMNEKQLFHGTDAGSVPHVNRNGFNRSYAGKNAVAYGKGTYFAVNANYSANDTYSRPDANGRKHVYYVRVLTGIYTHGNHSLIVPPSKNPQNPTDLYDTVTDNVHHPSLFVAFYDYQAYPEYLITFRK

Tests used:
[1] = target: Recombinant human STAT1α (OriGene Technologies, Inc.) (UniProt P42224)
[2] = target: T1, Recombinant human STAT1α (OriGene …)

Molecule	ADP-ribosylation (protein ribosylation assay) [1]	ADP-ribosylation (protein ribosylation assay, Western blot with Streptavidin-HRP) [2]	mono-ADP-ribosylation sites by LC-MS/MS [2]
Recombinant human PARP9 (BPS Bioscience Inc.)	PARP9 did not ADP-ribosylate STAT1α		
B1		Recombinant PARP14 protein induced ADP-ribosylation of PARP14 itself, PARP9, and STAT1α	Glu657 and Glu705 of STAT1α were mono-ADP-ribosylated by PARP14

From patent US20160289685
